Measurements taken from the supplement of paper PMC9112550, “Optimization of the antimicrobial peptide Bac7 by deep mutational scanning” (BMC Biology, 2022).

Tested on: Escherichia coli TOP10
Assay: shrunken log2 fold change of peptide-encoding DNA abundance (4.5 h post-induction vs induction); higher = less antimicrobial activity (less host growth inhibition)
Settings: time post-induction: 4.5 h; library: site-saturation at positions 5, 18, 19, 20
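Also: peptides expressed intracellularly from a pBAD plasmid library in pooled LB shake-flask culture, induced with 0.3% L-arabinose, DNA abundance read by NGS, three biological replicates, DESeq2 with apeglm shrinkage.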

Sequence	shrunken log2 fold change
RRIRLRPPRLPRPRPRPFFDPRP	-0.0987
RRIRCRPPRLPRPRPRPQWCPRP	-0.158
RRIRVRPPRLPRPRPRPCSAPRP	0.0399
RRIRNRPPRLPRPRPRPHHIPRP	-0.282
RRIRERPPRLPRPRPRPIMLPRP	-0.227
RRIRGRPPRLPRPRPRPDSAPRP	0.525
RRIRCRPPRLPRPRPRPYWLPRP	-0.669
RRIRNRPPRLPRPRPRPLMPPRP	-0.173
RRIRNRPPRLPRPRPRPHTIPRP	-0.106
RRIRFRPPRLPRPRPRPCRMPRP	-0.168
RRIRQRPPRLPRPRPRPLWKPRP	-0.0262
RRIRARPPRLPRPRPRPGGLPRP	0.936
RRIRPRPPRLPRPRPRPSCTPRP	-0.221
RRIRGRPPRLPRPRPRPMPGPRP	0.479
RRIRSRPPRLPRPRPRPRRNPRP	0.128
RRIRNRPPRLPRPRPRPKKSPRP	0.129
RRIRVRPPRLPRPRPRPQVNPRP	-0.795
RRIRWRPPRLPRPRPRPRPDPRP	0.518
RRIRWRPPRLPRPRPRPPCYPRP	-0.436
RRIRFRPPRLPRPRPRPMPEPRP	-0.0117
RRIRGRPPRLPRPRPRPQSQPRP	0.139
RRIRFRPPRLPRPRPRPPKFPRP	0.0968
RRIRCRPPRLPRPRPRPVNGPRP	1.74

Sequence	shrunken log2 fold change
RRIRCRPPRLPRPRPRPNRKPRP	-0.127
RRIRLRPPRLPRPRPRPWPHPRP	0.0514
RRIRSRPPRLPRPRPRPSPHPRP	-0.194
RRIRMRPPRLPRPRPRPLGRPRP	0.723
RRIRPRPPRLPRPRPRPDSTPRP	-0.679
RRIRRRPPRLPRPRPRPGYAPRP	0.259
RRIRLRPPRLPRPRPRPYQYPRP	-0.151
RRIRSRPPRLPRPRPRPMLEPRP	-0.0898
RRIRMRPPRLPRPRPRPYVWPRP	-0.0956
RRIRWRPPRLPRPRPRPNRNPRP	-0.602
RRIRFRPPRLPRPRPRPNGQPRP	-0.0712
RRIRARPPRLPRPRPRPNWSPRP	0.225
RRIRQRPPRLPRPRPRPFAYPRP	-0.0651
RRIRTRPPRLPRPRPRPVMAPRP	-0.0918
RRIRTRPPRLPRPRPRPVKWPRP	-0.0599
RRIRYRPPRLPRPRPRPAIMPRP	-0.196
RRIRCRPPRLPRPRPRPCIKPRP	-0.426
RRIRDRPPRLPRPRPRPHWWPRP	0.272
RRIRKRPPRLPRPRPRPNTDPRP	-0.261
RRIRNRPPRLPRPRPRPWCSPRP	-0.535
RRIRHRPPRLPRPRPRPTWDPRP	0.0552
RRIRVRPPRLPRPRPRPYDIPRP	-0.279
RRIRIRPPRLPRPRPRPLNVPRP	-1.23

Sequence	shrunken log2 fold change
RRIRWRPPRLPRPRPRPGRQPRP	-0.00663
RRIRSRPPRLPRPRPRPDSWPRP	0.0247
RRIRYRPPRLPRPRPRPVQEPRP	-0.149
RRIRGRPPRLPRPRPRPAVIPRP	0.232
RRIRARPPRLPRPRPRPQHGPRP	-0.265
RRIRTRPPRLPRPRPRPDMIPRP	0.00205
RRIRIRPPRLPRPRPRPAKMPRP	-0.101
RRIRLRPPRLPRPRPRPTHNPRP	-0.0209
RRIRMRPPRLPRPRPRPQMYPRP	-0.24
RRIRIRPPRLPRPRPRPTKMPRP	-0.116
RRIRMRPPRLPRPRPRPPGWPRP	1.25
RRIRSRPPRLPRPRPRPQFKPRP	-0.239
RRIRMRPPRLPRPRPRPDTHPRP	0.18
RRIRPRPPRLPRPRPRPAKTPRP	-0.168
RRIRSRPPRLPRPRPRPPWRPRP	0.614
RRIRFRPPRLPRPRPRPFADPRP	-0.0172
RRIRQRPPRLPRPRPRPSQTPRP	-0.083
RRIRCRPPRLPRPRPRPTGPPRP	0.669
RRIRARPPRLPRPRPRPGHTPRP	0.129
RRIRVRPPRLPRPRPRPWAVPRP	0.157
RRIRSRPPRLPRPRPRPCVHPRP	-0.471
RRIRPRPPRLPRPRPRPVLCPRP	0.282
RRIRLRPPRLPRPRPRPGRFPRP	0.226

Sequence	shrunken log2 fold change
RRIRKRPPRLPRPRPRPRARPRP	0.776
RRIRVRPPRLPRPRPRPFGEPRP	0.092
RRIRYRPPRLPRPRPRPDYDPRP	-0.476
RRIRGRPPRLPRPRPRPFIAPRP	0.245
RRIRYRPPRLPRPRPRPKPQPRP	-0.115
RRIRCRPPRLPRPRPRPYATPRP	-0.294
RRIRHRPPRLPRPRPRPFRQPRP	0.0583
RRIRDRPPRLPRPRPRPEIVPRP	0.048
RRIRRRPPRLPRPRPRPPTFPRP	0.0767
RRIRDRPPRLPRPRPRPYGHPRP	-0.012
RRIRLRPPRLPRPRPRPNNYPRP	-0.577
RRIRHRPPRLPRPRPRPYAVPRP	-0.0274
RRIRDRPPRLPRPRPRPGPCPRP	0.244
RRIRNRPPRLPRPRPRPDVEPRP	-0.00443
RRIRFRPPRLPRPRPRPMDGPRP	-0.0177
RRIRVRPPRLPRPRPRPCMYPRP	-0.387
RRIRVRPPRLPRPRPRPAERPRP	-0.0583
RRIRGRPPRLPRPRPRPSKWPRP	-0.158
RRIRARPPRLPRPRPRPSTFPRP	0.435
RRIRPRPPRLPRPRPRPRVNPRP	-0.194
RRIRPRPPRLPRPRPRPERQPRP	0.153
RRIRKRPPRLPRPRPRPEEYPRP	0.0303
